Assay results published in article PMC4520770 (Journal of molecular biology, 2015).
5/6‑FAM = 5/6-fluorescein amidite

Target: KSBcl-2 (Kaposi's sarcoma-associated herpesvirus Bcl-2 homolog), c-myc-tagged (Kaposi's sarcoma-associated herpesvirus …, UniProt P90504 1-175)
Test: fluorescence polarisation

Binder | Kd
{5/6‑FAM}-RPQIWIHQGLQRLGDGLNAYYAR-NH2 [KL6-7] | 1.6 nM
{5/6‑FAM}-RPQIWIHQGLQRLGDGLNAYKAR-NH2 [KL6-7_Y4eK] | 2.9 nM
{5/6‑FAM}-RPQIWIHQGLQRLGAGLNAYYAR-NH2 [KL6-7_D3fA] | 180 nM
{5/6‑FAM}-RPNIWLTQRLQRTGDGLNAYYAR-NH2 [KScomp] | 13 nM
{5/6‑FAM}-RPIIWIGQEISRVGDRENAYYAR-NH2 [BL6-22] | 1100 nM
{5/6‑FAM}-RPIIWIGQEISRVGDRENAYKAR-NH2 [BL6-22_Y4eK] | 750 nM
